What was measured:
Experiment in all cases: holdup assay
Design in all cases: key: below the threshold = too weak to quantify, mostly under pKd 3.1 to 4
Details in all cases: plain residues with an end cap or a label only (N-terminal biotin on a linker: ado-ado)
GRIP1_5, Q9Y3R0 = biological target: T1, GRIP1_5, Q9Y3R0
T1 sequence (Q9Y3R0 568-668, limits assumed, looked up): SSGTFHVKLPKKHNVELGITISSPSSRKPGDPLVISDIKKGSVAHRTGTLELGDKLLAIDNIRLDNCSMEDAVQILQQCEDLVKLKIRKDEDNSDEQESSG

NOS1, P29475 = biological target: NOS1, P29475
GRIP2_5, Q9C0E4 = biological target: GRIP2_5, Q9C0E4
DLG1_1, Q12959 = biological target: DLG1_1, Q12959
LAP2, Q96RT1 = biological target: LAP2, Q96RT1
LIN7B, Q9HAP6 = biological target: T2, LIN7B, Q9HAP6
T2 sequence (Q9HAP6 88-185, limits assumed, looked up): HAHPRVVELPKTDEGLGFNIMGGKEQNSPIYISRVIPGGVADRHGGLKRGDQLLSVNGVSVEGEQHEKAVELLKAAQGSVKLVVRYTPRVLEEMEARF

TIAM2, Q8IVF5 = biological target: T3, TIAM2, Q8IVF5
T3 sequence (Q8IVF5 885-986, limits assumed, looked up): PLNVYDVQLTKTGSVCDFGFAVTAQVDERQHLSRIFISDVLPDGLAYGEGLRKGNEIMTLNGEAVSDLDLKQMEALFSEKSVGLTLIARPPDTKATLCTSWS

PARD3_3, Q8TEW0 = biological target: PARD3_3, Q8TEW0
MPP2, Q14168 = biological target: T4, MPP2, Q14168
T4 sequence (Q14168 180-250, limits assumed, looked up): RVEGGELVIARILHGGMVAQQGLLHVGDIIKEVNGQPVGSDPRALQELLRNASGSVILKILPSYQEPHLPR

LNX2_3, Q8N448 = biological target: T5, LNX2_3, Q8N448
T5 sequence (Q8N448 463-564, limits assumed, looked up): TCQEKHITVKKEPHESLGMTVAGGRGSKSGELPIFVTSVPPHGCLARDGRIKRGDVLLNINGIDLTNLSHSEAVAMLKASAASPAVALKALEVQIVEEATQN

IL16_4, Q14005 = biological target: IL16_4, Q14005
HTRA3, P83110 = biological target: T6, HTRA3, P83110
T6 sequence (P83110 354-453, limits assumed, looked up): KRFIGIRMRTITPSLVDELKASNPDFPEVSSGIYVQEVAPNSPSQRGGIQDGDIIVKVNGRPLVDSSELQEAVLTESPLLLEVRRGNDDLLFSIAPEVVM

Inadl_2, Q8NI35 = biological target: Inadl_2, Q8NI35
LNX2_2, Q8N448 = biological target: T7, LNX2_2, Q8N448
T7 sequence (Q8N448 334-432, limits assumed, looked up): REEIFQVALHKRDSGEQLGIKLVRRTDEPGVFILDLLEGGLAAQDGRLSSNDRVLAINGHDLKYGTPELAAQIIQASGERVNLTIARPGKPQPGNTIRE

DLG3_2, Q92796 = biological target: T8, DLG3_2, Q92796
T8 sequence (Q92796 221-321, limits assumed, looked up): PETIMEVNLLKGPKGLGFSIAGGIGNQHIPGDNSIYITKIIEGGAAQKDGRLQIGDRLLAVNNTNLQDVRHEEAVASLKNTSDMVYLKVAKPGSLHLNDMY

GRIP1_4, Q9Y3R0 = biological target: T9, GRIP1_4, Q9Y3R0
T9 sequence (Q9Y3R0 467-571, limits assumed, looked up): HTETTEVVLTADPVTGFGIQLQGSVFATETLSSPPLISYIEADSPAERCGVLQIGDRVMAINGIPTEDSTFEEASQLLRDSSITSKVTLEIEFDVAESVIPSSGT

FRMPD4, Q14CM0 = biological target: FRMPD4, Q14CM0
SNX27, Q96L92 = biological target: SNX27, Q96L92
MAST2, Q6P0Q8 = biological target: MAST2, Q6P0Q8
TJP2_1, Q9UDY2 = biological target: TJP2_1, Q9UDY2
IL16_3, Q14005 = biological target: IL16_3, Q14005
ARHGAP21, Q5T5U3 = biological target: T10, ARHGAP21, Q5T5U3
T10 sequence (Q5T5U3 45-169, limits assumed, looked up): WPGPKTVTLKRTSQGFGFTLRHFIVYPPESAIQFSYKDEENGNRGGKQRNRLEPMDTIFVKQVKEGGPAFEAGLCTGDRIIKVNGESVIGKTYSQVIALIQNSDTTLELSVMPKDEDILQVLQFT

MAGI2_2, Q86UL8 = biological target: MAGI2_2, Q86UL8
NHERF3_1, Q5T2W1 = biological target: T11, NHERF3_1, Q5T2W1
T11 sequence (Q5T2W1 4-100, limits assumed, looked up): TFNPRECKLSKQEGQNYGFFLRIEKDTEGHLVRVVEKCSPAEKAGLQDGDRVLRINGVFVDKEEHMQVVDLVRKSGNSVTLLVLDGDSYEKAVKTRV

RADIL, Q96JH8 = biological target: T12, RADIL, Q96JH8
T12 sequence (Q96JH8 971-1071, limits assumed, looked up): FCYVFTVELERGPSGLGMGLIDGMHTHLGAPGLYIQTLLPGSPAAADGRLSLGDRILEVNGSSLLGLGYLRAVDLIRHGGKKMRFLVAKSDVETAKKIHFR

Chain of TJP2_1, Q9UDY2 (Q9UDY2 24-128): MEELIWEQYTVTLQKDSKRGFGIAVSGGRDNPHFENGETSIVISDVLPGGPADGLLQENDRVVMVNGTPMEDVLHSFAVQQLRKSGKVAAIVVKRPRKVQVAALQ
Chain of IL16_4, Q14005 (Q14005 1229-1329): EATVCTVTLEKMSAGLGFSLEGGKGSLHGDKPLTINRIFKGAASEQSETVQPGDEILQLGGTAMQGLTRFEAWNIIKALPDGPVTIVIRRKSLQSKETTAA
Chain of Inadl_2, Q8NI35 (Q8NI35 238-335): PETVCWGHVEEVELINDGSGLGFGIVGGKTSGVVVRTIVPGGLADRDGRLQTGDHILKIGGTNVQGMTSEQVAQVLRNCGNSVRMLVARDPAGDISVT
Chain of NOS1, P29475 (P29475 9-101): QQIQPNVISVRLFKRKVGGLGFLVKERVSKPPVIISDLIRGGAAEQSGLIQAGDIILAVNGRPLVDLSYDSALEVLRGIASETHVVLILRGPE
Chain of MAGI2_2, Q86UL8 (Q86UL8 410-522): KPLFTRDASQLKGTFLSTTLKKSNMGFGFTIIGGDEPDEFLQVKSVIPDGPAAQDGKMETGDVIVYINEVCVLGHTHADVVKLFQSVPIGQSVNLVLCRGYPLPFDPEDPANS
Chain of LAP2, Q96RT1 (Q96RT1 other isoform, or with tags, fused parts or gaps): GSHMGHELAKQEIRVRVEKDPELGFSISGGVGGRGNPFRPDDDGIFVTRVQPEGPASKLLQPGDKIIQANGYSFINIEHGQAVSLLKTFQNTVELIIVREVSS
Chain of MAST2, Q6P0Q8 (Q6P0Q8 1099-1202): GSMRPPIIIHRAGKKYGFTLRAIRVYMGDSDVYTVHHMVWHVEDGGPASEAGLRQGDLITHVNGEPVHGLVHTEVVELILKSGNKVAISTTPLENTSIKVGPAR
Chain of GRIP2_5, Q9C0E4 (Q9C0E4 544-642): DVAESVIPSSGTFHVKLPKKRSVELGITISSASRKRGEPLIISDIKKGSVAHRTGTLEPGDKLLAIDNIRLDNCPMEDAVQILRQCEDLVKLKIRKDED
Chain of PARD3_3, Q8TEW0 (Q8TEW0 582-685): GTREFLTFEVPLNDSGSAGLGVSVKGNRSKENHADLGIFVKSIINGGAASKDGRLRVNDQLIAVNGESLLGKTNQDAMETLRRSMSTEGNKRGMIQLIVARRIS
Chain of IL16_3, Q14005 (Q14005 1107-1207): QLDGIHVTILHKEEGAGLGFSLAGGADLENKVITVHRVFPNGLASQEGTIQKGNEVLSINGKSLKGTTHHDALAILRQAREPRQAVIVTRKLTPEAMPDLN
Chain of FRMPD4, Q14CM0 (Q14CM0 67-160): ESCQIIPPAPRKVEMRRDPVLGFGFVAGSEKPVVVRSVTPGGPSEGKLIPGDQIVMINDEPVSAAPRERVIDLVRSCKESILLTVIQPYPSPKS

Row | Binder | pKd (GRIP1_5, Q9Y3R0) | pKd (NOS1, P29475) | pKd (GRIP2_5, Q9C0E4) | pKd (DLG1_1, Q12959) | pKd (LAP2, Q96RT1) | pKd (LIN7B, Q9HAP6) | pKd (TIAM2, Q8IVF5) | pKd (PARD3_3, Q8TEW0) | pKd (MPP2, Q14168) | pKd (LNX2_3, Q8N448) | pKd (IL16_4, Q14005) | pKd (HTRA3, P83110) | pKd (Inadl_2, Q8NI35) | pKd (LNX2_2, Q8N448) | pKd (DLG3_2, Q92796) | pKd (GRIP1_4, Q9Y3R0) | pKd (FRMPD4, Q14CM0) | pKd (SNX27, Q96L92) | pKd (MAST2, Q6P0Q8) | pKd (TJP2_1, Q9UDY2) | further results
1 | SAAKVLTSMC [GHRHR, Q02643] | below the threshold | below the threshold | below the threshold | below the threshold | below the threshold | 3.7 | below the threshold | below the threshold | below the threshold | below the threshold | below the threshold | 4.24 | below the threshold | below the threshold | 4.12 | below the threshold | below the threshold | 5.16 | 4.15 | 3.6 | pKd (IL16_3, Q14005): below the threshold; pKd (ARHGAP21, Q5T5U3): below the threshold; pKd (MAGI2_2, Q86UL8): below the threshold; pKd (NHERF3_1, Q5T2W1): 3.94; pKd (RADIL, Q96JH8): 3.71
2 | TLPRKRMSSI [GPRC6A, Q5T6X5] | below the threshold | below the threshold | below the threshold | below the threshold | 3.86 | 3.75 | 4.07 | below the threshold | below the threshold | below the threshold | below the threshold | below the threshold | below the threshold | below the threshold | 4.23 | below the threshold | below the threshold | below the threshold | 4.82 | below the threshold | pKd (IL16_3, Q14005): below the threshold; pKd (ARHGAP21, Q5T5U3): below the threshold; pKd (MAGI2_2, Q86UL8): 3.82; pKd (NHERF3_1, Q5T2W1): below the threshold; pKd (RADIL, Q96JH8): below the threshold
3 | QSPANIYYKV [EFNB1, P52799] | below the threshold | below the threshold | below the threshold | below the threshold | below the threshold | below the threshold | 4.1 | below the threshold | below the threshold | below the threshold | below the threshold | below the threshold | below the threshold | 4.25 | below the threshold | below the threshold | 3.8 | below the threshold | 4.56 | below the threshold | pKd (IL16_3, Q14005): below the threshold; pKd (ARHGAP21, Q5T5U3): below the threshold; pKd (MAGI2_2, Q86UL8): below the threshold; pKd (NHERF3_1, Q5T2W1): below the threshold; pKd (RADIL, Q96JH8): 4.05
4 | QSARLWETSI [ADAM22, Q9P0K1] | below the threshold | below the threshold | below the threshold | 4.21 | 3.96 | 4.35 | 3.97 | 3.74 | below the threshold | below the threshold | 3.47 | below the threshold | below the threshold | below the threshold | 4.32 | below the threshold | below the threshold | 5.41 | 5.62 | below the threshold | pKd (IL16_3, Q14005): below the threshold; pKd (ARHGAP21, Q5T5U3): below the threshold; pKd (MAGI2_2, Q86UL8): 3.72; pKd (NHERF3_1, Q5T2W1): 4.88; pKd (RADIL, Q96JH8): 3.71
